Target: T1, Schizosaccharomyces pombe Uba1 (lacking the first 12 amino acids) (S. pombe, UniProt O94609 13-1012, active site cysteine thiol linked to the dithioacetal carbon of the Ub(T) Gly76 surrogate)
T1 construct: Full-length Uba1 was used in the transthiolation assays; this molecule also stands for it in the functional rows; also called E1; source: E. coli BL21 (DE3) codon plus, purified (Ni-NTA, Ulp1, SEC, MonoQ)
T1 sequence (looked up): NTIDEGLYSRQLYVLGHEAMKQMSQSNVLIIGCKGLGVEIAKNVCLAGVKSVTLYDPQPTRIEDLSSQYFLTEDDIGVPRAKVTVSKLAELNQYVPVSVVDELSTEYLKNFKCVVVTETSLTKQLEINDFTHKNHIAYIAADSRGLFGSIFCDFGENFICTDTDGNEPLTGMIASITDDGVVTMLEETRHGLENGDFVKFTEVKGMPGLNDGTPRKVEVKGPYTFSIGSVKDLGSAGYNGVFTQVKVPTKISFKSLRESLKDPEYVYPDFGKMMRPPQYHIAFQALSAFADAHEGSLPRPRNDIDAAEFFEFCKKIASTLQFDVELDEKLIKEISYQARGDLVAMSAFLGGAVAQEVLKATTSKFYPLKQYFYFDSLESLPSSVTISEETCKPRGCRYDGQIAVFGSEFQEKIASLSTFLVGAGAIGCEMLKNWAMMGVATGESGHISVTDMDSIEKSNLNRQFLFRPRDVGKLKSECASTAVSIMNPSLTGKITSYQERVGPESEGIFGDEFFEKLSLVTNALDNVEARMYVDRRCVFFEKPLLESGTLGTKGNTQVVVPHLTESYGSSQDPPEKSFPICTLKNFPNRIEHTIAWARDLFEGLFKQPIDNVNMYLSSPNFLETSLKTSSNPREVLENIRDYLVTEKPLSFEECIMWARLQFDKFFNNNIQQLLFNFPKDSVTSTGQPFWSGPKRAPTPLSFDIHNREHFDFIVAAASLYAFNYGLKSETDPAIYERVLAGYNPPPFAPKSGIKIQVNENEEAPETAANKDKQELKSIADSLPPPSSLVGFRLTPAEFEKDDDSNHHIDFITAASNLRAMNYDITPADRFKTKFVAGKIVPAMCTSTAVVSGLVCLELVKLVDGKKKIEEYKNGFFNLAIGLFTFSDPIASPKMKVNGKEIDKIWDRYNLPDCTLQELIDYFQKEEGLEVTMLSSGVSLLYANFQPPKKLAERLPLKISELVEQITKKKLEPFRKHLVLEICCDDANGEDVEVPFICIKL
Test: cryo-EM structure; E1–Ub(T)–E2 (Ub(T) Gly76 surrogate covalently linked to the E1 and E2 active site cysteines) at 3 mg/ml in Tris-HCl pH 7.2, 100 mM NaCl, preincubated 30 min on ice with 5 mM MgCl2, 1 mM ATP and ~0.8 molar equivalents of Ub; 0.05% CHAPSO; doubly and singly loaded complexes resolved from the same sample
Details: both partners purified

B1: S. pombe Ub without tags (natural protein)
chain: not shown
notes: In clusters 3 to 5 of the doubly loaded complex the C terminus of Ub(A) is adenylated (Ub(A)-AMP); also called Ub(A); native Ub; source: E. coli BL21 (DE3) codon plus, purified (as described previously, with additional SEC)
binding result: binds
